# Patent publication US20140308287A1 (SEA LANE BIOTECHNOLOGIES, published 2014)
# Numbering of substitutions follows the chain as printed.
# B1: 2995-A01 (other)
# VH: EVQLLESGGGLVQPGGSLRLSCAASGFTFSSYWMHWVRQAPGKGLEWVAAISSSGTYTYYADSVKGRFTISRDNSKNTLYLQMNSLRAEDTAVYYCAKDNFILLNSWFDYWGQGTLVTVSS
# light: QPVLHQPPAMSSALGTTIRLTCTLRNDHDIGVYSVYWYQQRPGHPPRFLLRYFSQSDKSQGPQVPPRFSGSKDVARNRGYLSISELQPEDEAMYYCAMGARSSVTHVFGSGTQLTVLSQPKATPSVTLFPPSSEELQANKATLVCLMNDFYPGILTVTWKADGTPITQGVEMTTPSKQSNNKYAASSYLSLTPEQWRSRRSYSCQVMHEGSTVEKTVAPAECS
# B2: 2995-H11 (other)
# VH: B1 VH with S31D, A49S, T56G, T58K
# light: B1 light
# B3: 2995-D08 (other)
# VH: B1 VH with S31D, S53W, S54G, T56S
# light: B1 light
# B4: 2995-D03 (other)
# VH: B1 VH with W33A, A50L, S53N, S54G, G55S, T56G, T58K
# light: B1 light
# notes: copies: 1 + 1
# B5: 2995-A07 (other)
# VH: B1 VH with A50G, S54G, T56A
# light: B1 light
# B6: 2995-C10 (other)
# VH: B1 VH with A50G, S53G, S54G, T56A
# light: B1 light
# notes: copies: 1 + 1
# B7: 2995-A08 (other)
# VH: B1 VH with A50G, S53N, S54G, T56S, Y57I, T58I
# light: B1 light
# B8: 2995-H09 (other)
# VH: B1 VH with S31N, A50S, S53N, S54G, T56R, T58I
# light: B1 light
# B9: 2995-D01 (other)
# VH: B1 VH with H35S, A50L, S53N, S54G, T56S, Y57I, T58K
# light: B1 light
# B10: 2995-D11 (other)
# VH: B1 VH with A50V, S53N, S54N, T56R, T58K
# surrogate light: B1 light
# notes: copies: 1 + 1
# B11: 2995-B06 (other)
# VH: B1 VH with S31N, W33G, A50L, S54G, T56A
# light: B1 light
# B12: 2995-B01 (other)
# VH: B1 VH with S31D, W33A, A50L, S54G, T56R, T58K
# light: B1 light
# B13: 2995-G10 (other)
# VH: B1 VH with S31D, H35N, A50N, S53N, S54G, T58I
# light: B1 light
# B14: 2995-A06 (other)
# VH: B1 VH with A50G, S53D, S54G, T56A
# surrogate light: B1 light
# notes: copies: 1 + 1
# B15: 2995-A09 (other)
# VH: B1 VH with A50G, S53Y, S54G
# light: B1 light
# B16: 2995-E08 (other)
# VH: B1 VH with A50G, S54G, T56S, T58K
# light: B1 light
# B17: 2995-D07 (other)
# VH: B1 VH with S31N, S53N, S54G, T56G, T58K
# surrogate light: B1 light
# notes: copies: 1 + 1
# B18: 2995-G11 (other)
# VH: B1 VH with A49S, S54G, T56G, T58I
# surrogate light: B1 light
# notes: copies: 1 + 1
# B19: 2995-E12 (other)
# VH: B1 VH with S31N, A50L, S54G, G55S, T58I, Y59S
# light: B1 light
# B20: 2995-B04 (other)
# VH: B1 VH with S31N, A50L, S53N, S54N
# light: B1 light
# B21: 2995-C03 (other)
# VH: B1 VH with A50G, S53G, S54G, T56R
# surrogate light: B1 light
# notes: copies: 1 + 1
# B22: 2995-B10 (other)
# VH: B1 VH with S53A, S54G, G55S, T56G, T58I
# surrogate light: B1 light
# notes: copies: 1 + 1
# B23: 2995-C02 (other)
# VH: B1 VH with S31N, H35N, A50N, S54G, T56S
# surrogate light: B1 light
# notes: copies: 1 + 1
# B24: 2995-A12 (other)
# VH: B1 VH with S31D, H35N, A50N, S53G, S54G, T56G, T58I
# surrogate light: B1 light
# B25: 2995-H07 (other)
# VH: B1 VH with S31D, H35N, A50L, S53N, S54N, T56S
# light: B1 light
# B26: 2995-A05 (other)
# VH: B1 VH with S31N, S53N, S54G, G55S, T56S
# light: B1 light
# B27: 2995-F08 (other)
# VH: B1 VH with A49S, A50G, S53N, S54N, T56R, T58K
# light: B1 light
# B28: 2995-A02 (other)
# VH: B1 VH with H35N, A50L, S53N, S54G, T56G, Y57I, T58K
# light: B1 light
# notes: copies: 1 + 1
# B29: 2995-H03 (other)
# VH: B1 VH with S31D, A50V, S53G, S54G, T56A, T58K
# light: B1 light
# B30: 2995-C07 (other)
# VH: B1 VH with S31N, A50L, S54G, G55S, T58I, Y59S, F108L
# light: B1 light
# B31: 2995-C05 (other)
# VH: B1 VH with S31D, S54G, G55S, T56S
# surrogate light: B1 light
# notes: copies: 1 + 1
# B32: 2995-B02 (other)
# VH: B1 VH with S31D, A50V, S54N, T56R
# light: B1 light
# notes: copies: 1 + 1
# B33: 3000-B06 (other)
# VH: EVQLLESGGGLVQPGGSLRLSCAASGFTFSSYWMHWVRQAPGKGLEWVALISNNGAYIYYADSVKGRFTISRDNSKNTLYLQMNSLRAEDTAVYYCAKDNEKNLYTWLDYWGQGTLVTVSS
# light: B1 light
# B34: 3000-E01 (other)
# VH: B33 VH with I58T
# surrogate light: B1 light
# B35: 3000-H03 (other)
# VH: B33 VH with S31D, A49S, N54G, A56G, I58T
# surrogate light: B1 light
# B36: 3000-G09 (other)
# VH: B33 VH with N54G, A56G, I58K
# light: B1 light
# notes: copies: 1 + 1
# B37: 3000-A08 (other)
# VH: B33 VH with H35N, N54G, A56G, Y57I, I58K
# light: B1 light
# B38: 3000-B02 (other)
# VH: B33 VH with L50V, N53S, N54G, A56N
# surrogate light: B1 light
# B39: 3000-C03 (other)
# VH: B33 VH with A56T, I58K
# light: B1 light
# notes: copies: 1 + 1
# B40: 3000-A07 (other)
# VH: B33 VH with S31D, L50V, N53G, N54G, I58K
# surrogate light: B1 light
# B41: 3000-B09 (other)
# VH: B33 VH with S31D, N53S, N54G, A56G, I58K
# light: B1 light
# B42: 3000-C07 (other)
# VH: B33 VH with H35S, N54G, A56S, Y57I, I58K
# surrogate light: B1 light
# B43: 3000-A04 (other)
# VH: B33 VH with N53A, N54G, A56T, Y57S, I58K
# light: B1 light
# notes: copies: 1 + 1
# B44: 3000-E04 (other)
# VH: B33 VH with S31D, L50V, N53W, N54G, I58K
# surrogate light: B1 light
# B45: 3000-A11 (other)
# VH: B33 VH with N53W, N54G, A56G, Y57T, I58K
# light: B1 light
# notes: copies: 1 + 1
# B46: 3000-A05 (other)
# VH: B33 VH with S31D, N53A, N54G, A56T, I58K
# light: B1 light
# Molecular target: T1, human ErbB3-Fc (R&D Systems) (human, UniProt P21860 20-643)
# T1 construct: Bought protein; also called wild-type ErbB3-Fc fusion; immobilized ErbB3; not shown: Fc part of the bought fusion protein; not described
# Assay: ELISA on ErbB3-Fc, soluble monovalent Sab (Example 42)
row,EC50,Binder
1,0.071 nM,B1
2,0.063 nM,B2
3,0.052 nM,B3
4,0.015 nM,B4
5,0.022 nM,B5
6,0.02 nM,B6
7,0.02 nM,B7
8,0.02 nM,B8
9,0.038 nM,B9
10,0.027 nM,B10
11,0.01 nM,B11
12,0.046 nM,B12
13,0.022 nM,B13
14,0.032 nM,B14
15,0.045 nM,B15
16,0.039 nM,B16

row,EC50,Binder
1,0.033 nM,B17
2,0.029 nM,B18
3,0.04 nM,B19
4,0.021 nM,B20
5,0.027 nM,B21
6,0.032 nM,B22
7,0.028 nM,B23
8,0.01 nM,B24
9,0.025 nM,B25
10,0.022 nM,B26
11,0.059 nM,B27
12,0.018 nM,B28
13,0.026 nM,B29
14,0.056 nM,B30
15,0.015 nM,B31
16,0.016 nM,B32

# Molecular target: T1, human ErbB3-Fc (R&D Systems)
# Assay: as above
# Remark: another data set of the same source
row,EC50,Binder
1,0.084 nM,B33
2,0.105 nM,B34
3,0.109 nM,B35
4,0.158 nM,B36
5,0.072 nM,B37
6,0.115 nM,B38
7,0.164 nM,B39
8,0.087 nM,B40
9,0.07 nM,B41
10,0.102 nM,B42
11,0.127 nM,B43
12,0.109 nM,B44
13,0.139 nM,B45
14,0.082 nM,B46
